Experimental findings from article PMC2670261, “Characterization of the interaction between Actinin-Associated LIM Protein (ALP) and the rod domain of α-actinin” (BMC Cell Biology, 2009) are described below.

Where a chain is given by its changes, count along the chain named.

For data set [1], the target named is ALP107-273 (internal region fragment of actinin-associated LIM protein, residues 107-273) (human). The experiment in a line: SPR; Biacore 3000; ALP107-273 or peptide 3 immobilised by amine coupling on CM5; R1-R4 or R2-R3 as soluble analyte; 20 mM Tris pH 7.4, 150 mM NaCl, 0.005% P20; apparent Kd. For orientation: SPR reads the build-up and loss of mass on a sensor chip optically.

Data set [2] has as its target α-actinin 2 rod domain, spectrin repeats 1-4 (R1-R4) (human) (UniProt P35609). Kind of data set: SPR; Biacore 3000; α-actinin rod fragment (R1-R4 or R2-R3) immobilised by amine coupling on CM5; ALP107-273 or ALP peptides as soluble analyte; 20 mM Tris pH 7.4, 150 mM NaCl, 0.005% P20; apparent Kd.
Data set [3] deals with T1, α-actinin rod domain, spectrin repeats 1–4 (R1-R4) of human α-actinin 2 (Homo sapiens, UniProt P35609).
T1 construct: Rod fragments containing spectrin repeats 1–4 (residues 274–746); His-tag (cleaved yes); made in house; host or cells: Escherichia coli BL21(DE3)
Kind of data set: SPR interaction with α-actinin rod R1-R4. The class given is binding. The note with it: for Kd: SPR, 20 mM Tris pH 7.4, 150 mM NaCl, 0.005% P20. From the text:
(§1) Internal fragments of human ALP (AF039018) and chicken ALP (AJ249218) were cloned into a modified pET24d vector (Novagen, Merck Biosciences, Schwalbach, Germany) as described earlier using BsmBI (NcoI)- NotI cloning sites. Rod fragments containing spectrin repeats 1–4 (residues 274–746) or repeats 2 and 3 (residues 371–637) of human α-actinin 2 have been described previously. A YFP-fusion of ALP107-273 was generated in a pEYFP-C1 vector (Clontech, BD Biosciences) at an EcoRI-BamHI restriction site. The deletion constructs of pEYFP-ALP107-273 were generated by PCR. The α-Actinin-CFP construct is described elsewhere. All constructs were verified by DNA sequencing.
(§2) ALP internal fragments and an α-actinin rod containing the spectrin repeats 1–4 (R1-R4) and a fragment containing spectrin repeats 2 and 3 (R2-R3) were expressed at +37°C for 3–4 h in Escherichia coli BL21(DE3) strain as previously described. Briefly, proteins were purified using nickel nitrilotriacetic acid-agarose (Qiagen) as a first step. The His-tag was removed by tobacco etch virus protease (Invitrogen). For further purification, size exclusion chromatography (Superdex 75 16/60 and 26/60 columns, Amersham Biosciences) for ALP, and ion exchange (ProteinPakQ 8HR columns, Waters) for α-actinin fragments were used. The molecular weight standards for the gel filtration were obtained from Bio-Rad Laboratories. For NMR analysis, ^15N-labelled ALP107-273 and ^15N^13C-labelled ALP107-273 were produced in general M9-media with supplements. Expression was induced with 1 mM isopropyl-1-thio-β-D-galactopyranoside (IPTG) at +37°C for 8 hrs in E. coli BL21(DE3) strain. Low molecular weight markers used in SDS-polyacrylamide electrophoresis were obtained from Amersham Biosciences. Five ALP peptides were purchased from EZBiolab Inc. (Westfield, IN, USA).
A Biacore 3000 system (Biacore, Uppsala, Sweden) was used for surface plasmon resonance (SPR) analysis. Ligand immobilization was performed via amine coupling to gold sensor chips (CM5). […]

Data set [4] deals with T2, α-actinin 2 rod domain, spectrin repeats 1-4 (R1-R4) (human, UniProt P35609 274-746).
T2 construct: α-actinin 2, human, spectrin repeats 1-4, residues 274-746; also called α-actinin rod; α-actinin rod region; source: E. coli BL21(DE3), purified (Ni-NTA, TEV removal of the His-tag, ion exchange)
Kind of data set: SPR; Biacore 3000; ALP107-273 or peptide 3 immobilised by amine coupling on CM5; R1-R4 or R2-R3 as soluble analyte; 20 mM Tris pH 7.4, 150 mM NaCl, 0.005% P20; apparent Kd. The conditions noted are these: both partners purified.

A short description of data set [5]: Concentration reached after purification. The format is physicochemical. The note with it: purified protein fragment. Here is the method: as §2
Data set [6] concerns U2OS cells, α-actinin in actin stress fibres. The experiment in a line: Live cell localization of YFP fusion with α-actinin-CFP. The format is cell-based, human. The conditions noted are these: YFP fusion expressed with α-actinin-CFP in living U2OS cells.
Description: as §1
Human osteosarcoma (U2OS) cells were maintained in Dulbecco's modified Eagle's medium (DMEM) supplemented with 10% fetal bovine serum (Hyclone), 2 mM L-glutamine, penicillin and streptomycin (Sigma-Aldrich). Transfected cells were re-plated on fibronectin (10 μg/ml) coated glass bottom dishes (MatTek). General growth medium was used as imaging medium. The time lapse images were acquired with an IX-71 inverted microscope (Olympus) equipped with a Polychrome IV monochromator (TILL Photonics) with the appropriate filters, an Andor iXon (Andor) camera, a heated sample environment (+37°C) and CO2-control. A PLAPON 60xO TIRFM 60x/1,45 (oil) objective (Olympus) was used. […]

For data set [7], the target named is T3, α-actinin spectrin repeats 2–3 (R2-R3) of human α-actinin 2 (Homo sapiens, UniProt P35609).
T3 construct: repeats 2 and 3 (residues 371–637) of human α-actinin 2; His-tag (cleaved yes); made in house; host or cells: Escherichia coli BL21(DE3)
Kind of data set: SPR interaction with α-actinin R2-R3. The format is binding. The note with it: Biacore 3000, R2-R3 immobilized, ALP107-273 as analyte.
Description: as §1
ALP internal fragments and an α-actinin rod containing the spectrin repeats 1–4 (R1-R4) and a fragment containing spectrin repeats 2 and 3 (R2-R3) were expressed at +37°C for 3–4 h in Escherichia coli BL21(DE3) strain as previously described. Briefly, proteins were purified using nickel nitrilotriacetic acid-agarose (Qiagen) as a first step. The His-tag was removed by tobacco etch virus protease (Invitrogen). For further purification, size exclusion chromatography (Superdex 75 16/60 and 26/60 columns, Amersham Biosciences) for ALP, and ion exchange (ProteinPakQ 8HR columns, Waters) for α-actinin fragments were used. The molecular weight standards for the gel filtration were obtained from Bio-Rad Laboratories. […]

The subject of a further data set is CHO cells, stress fibres. Kind of data set: Localization of YFP-ALP107-273 mutants at stress fibres. The format is cell-based. The conditions noted are these: YFP fused to ALP107-273 with deletions or mutations; CHO cells 24 h after transfection, 4 h on fibronectin; blinded scoring.
Description: as §1
The pEYFP ALP107-273 and mutants were transfected into CHO cells as described previously. Following 24 hrs transfection, the cells were seeded for 4 hrs on coverslips coated with 10 μg/ml human plasma fibronectin (Sigma) and fixed with 4% paraformaldehyde in 140 mM NaCl, 10 mM Na-Phosphate pH 7.4. The coverslips were coded and the number of cells with YFP localization at stress fibres was counted by two observers who were blinded to the identity of the samples. At least 100 cells were scored from each coverslip, four coverslips were used per transfection, and the experiment was repeated at least three times.

T1 sequence (P35609 274-746): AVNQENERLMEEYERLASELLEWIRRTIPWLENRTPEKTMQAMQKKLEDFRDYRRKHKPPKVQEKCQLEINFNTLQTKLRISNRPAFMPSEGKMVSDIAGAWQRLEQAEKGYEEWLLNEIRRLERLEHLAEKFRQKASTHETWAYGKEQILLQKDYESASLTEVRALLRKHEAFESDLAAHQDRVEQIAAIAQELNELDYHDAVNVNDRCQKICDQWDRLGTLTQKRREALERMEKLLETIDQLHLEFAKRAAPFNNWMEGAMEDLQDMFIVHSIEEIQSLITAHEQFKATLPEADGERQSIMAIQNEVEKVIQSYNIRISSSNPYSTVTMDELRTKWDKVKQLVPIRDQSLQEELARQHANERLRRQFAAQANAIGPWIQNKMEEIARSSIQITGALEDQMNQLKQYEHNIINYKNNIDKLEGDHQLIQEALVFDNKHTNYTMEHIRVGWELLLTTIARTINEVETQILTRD
T2 sequence (P35609 274-746): as above
Sequence of α-actinin 2 rod domain, spectrin repeats 1-4 (R1-R4) (human) (P35609 274-746): as above
T3 sequence (P35609 371-637): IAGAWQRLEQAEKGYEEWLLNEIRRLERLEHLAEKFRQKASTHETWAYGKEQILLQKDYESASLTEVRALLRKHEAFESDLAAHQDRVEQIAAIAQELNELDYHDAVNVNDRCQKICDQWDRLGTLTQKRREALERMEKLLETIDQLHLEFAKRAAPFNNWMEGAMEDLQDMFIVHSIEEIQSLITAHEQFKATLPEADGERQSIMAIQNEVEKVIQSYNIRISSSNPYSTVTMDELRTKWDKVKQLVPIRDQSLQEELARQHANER

For the molecule “α-actinin 2 rod domain, spectrin repeats 1-4 (R1-R4) (from UniProt P35609 274-746) (domain or fragment)”, the Kd in data set [1] came out at 4500 nM. “ALP107-273 (internal region fragment of actinin-associated LIM protein, residues 107-273) (domain or fragment)”: the Kd in data set [2] was 270 nM. “MNKPEQALLVQIHPLVTEPFMG [scrambled version of peptide 3, scrambled peptide 3 containing the same amino acids in random order, reference compound]”: the “interaction with the rod domain in SPR” value in data set [3] (comparison with peptide 3 (Fig 7D)) was “did not interact”.

B1: ALP peptide 3 (residues 175-196) (peptide)
peptide: PLEMELPGVKIVHAQFNTPMQL
notes: source: synthetic peptide, bought: EZBiolab Inc
With B1, in data set [4], the Kd is 3000 nM.

B2: ALP107-273: 167 residue construct of the human ALP internal region, residues 107–273; used as YFP fusion in cells (protein, UniProt Q53GG5 107-273, looked up, fragment)
chain: SEPQDGNYFEHKHNIRPKPFVIPGRSSGCSTPSGIDCGSGRSTPSSVSTVSTICPGDLKVAAKLAPNIPLEMELPGVKIVHAQFNTPMQLYSDDNIMETLQGQVSTALGETPLMSEPTASVPPESDVYRMLHDNRNEPTQPRQSGSFRVLQGMVDDGSDDRPAGTRS
modifications: YFP fusion
notes: 167 residue construct of the human ALP internal region, residues 107–273; used as YFP fusion in cells
With B2, the “concentration to which the purified fragment could be concentrated” value in data set [5] is on record as “up to 30 mg/ml”. Also, the Kd was 270 nM in data set [3] (Biacore 3000, CM5 amine coupling, R1-R4 immobilized, ALP107-273 as analyte); 4500 nM in data set [3] (Biacore 3000, immobilized ALP107-273, soluble R1-R4); 6.8 nM in data set [7]. Also, in data set [6], the “co-localization with α-actinin” value is reported as “co-localized with α-actinin in the stress fibres”.

B3: YS197-198FA: YFP-ALP107-273 point mutant, conserved tyrosine and serine of ZM motif changed to phenylalanine and alanine (protein, UniProt Q53GG5 107-273, looked up, variant Y197F S198A)
chain: B2 chain with Y91F, S92A
modifications: residues 107-273 YFP fusion
notes: YFP-ALP107-273 point mutant, conserved tyrosine and serine of ZM motif changed to phenylalanine and alanine
For B3, the “YFP localization at stress fibres” value in the data set on CHO cells, stress fibres was “abrogated localization”.
